Laboratory results as given in publication PMC5286394, “Architecture of the yeast Elongator complex” (EMBO Reports, 2016).

What was measured:
[1] = target: T1, Elp123 sub-complex within the endogenous holoElongator (Elp6-TAP purification) (S. cerevisiae (endogenous in strain …, UniProt Q06706 1-1349; P42935 1-788; Q02908 1-557); assay: negative-stain EM reconstruction with integrative modelling (EM map and cross-links); holoElongator from Elp6-TAP purification, 0.01% glutaraldehyde, gel filtration; 1% uranyl acetate; 31 Å; conditions: both partners purified
T1 construct: Elp1, S. cerevisiae, endogenous protein; Elp2, S. cerevisiae, endogenous protein; Elp3, S. cerevisiae, endogenous protein; copies: 2 + 2 + 2
T1 sequence (P42935 whole entry, one chain of several): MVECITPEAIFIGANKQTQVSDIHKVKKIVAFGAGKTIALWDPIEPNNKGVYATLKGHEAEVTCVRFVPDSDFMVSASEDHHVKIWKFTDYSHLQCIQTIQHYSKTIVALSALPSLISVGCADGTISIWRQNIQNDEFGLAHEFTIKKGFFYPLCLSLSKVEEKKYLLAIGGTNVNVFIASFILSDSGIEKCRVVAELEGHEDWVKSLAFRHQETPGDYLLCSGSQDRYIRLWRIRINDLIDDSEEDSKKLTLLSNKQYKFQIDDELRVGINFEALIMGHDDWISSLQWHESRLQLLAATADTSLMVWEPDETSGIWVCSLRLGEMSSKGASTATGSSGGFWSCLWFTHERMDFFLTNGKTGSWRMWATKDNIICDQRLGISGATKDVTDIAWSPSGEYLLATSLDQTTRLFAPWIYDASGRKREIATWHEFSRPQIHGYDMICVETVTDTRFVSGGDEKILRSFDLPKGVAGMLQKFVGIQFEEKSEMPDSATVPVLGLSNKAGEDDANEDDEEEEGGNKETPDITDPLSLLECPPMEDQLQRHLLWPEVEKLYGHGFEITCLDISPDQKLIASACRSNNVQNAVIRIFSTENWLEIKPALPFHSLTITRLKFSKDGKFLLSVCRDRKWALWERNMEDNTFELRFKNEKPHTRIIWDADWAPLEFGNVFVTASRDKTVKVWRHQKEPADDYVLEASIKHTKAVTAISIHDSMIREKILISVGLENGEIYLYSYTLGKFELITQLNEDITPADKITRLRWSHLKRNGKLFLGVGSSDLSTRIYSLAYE

[2] = target: T2, untagged full-length Elp1 (S. cerevisiae, UniProt Q06706 1-1349); assay: pull-down; GST pull-down: 20 μg GST-tagged protein and increasing amounts of untagged partner with glutathione Sepharose, 2 h at 4°C, 20 mM Tris pH 7.5, 150 mM NaCl, 5 mM DTT, 0.1% Tween-20; five washes; SDS–PAGE, Coomassie; conditions: both partners purified
T2 construct: Elp1, Elongator subunit 1, S. cerevisiae; source: E. coli BL21 pSarRare, purified (NiNTA, TEV cleavage, second NiNTA, gel filtration); not shown: His6, N-terminal, cleaved; GST, N-terminal, cleaved
T2 sequence (looked up): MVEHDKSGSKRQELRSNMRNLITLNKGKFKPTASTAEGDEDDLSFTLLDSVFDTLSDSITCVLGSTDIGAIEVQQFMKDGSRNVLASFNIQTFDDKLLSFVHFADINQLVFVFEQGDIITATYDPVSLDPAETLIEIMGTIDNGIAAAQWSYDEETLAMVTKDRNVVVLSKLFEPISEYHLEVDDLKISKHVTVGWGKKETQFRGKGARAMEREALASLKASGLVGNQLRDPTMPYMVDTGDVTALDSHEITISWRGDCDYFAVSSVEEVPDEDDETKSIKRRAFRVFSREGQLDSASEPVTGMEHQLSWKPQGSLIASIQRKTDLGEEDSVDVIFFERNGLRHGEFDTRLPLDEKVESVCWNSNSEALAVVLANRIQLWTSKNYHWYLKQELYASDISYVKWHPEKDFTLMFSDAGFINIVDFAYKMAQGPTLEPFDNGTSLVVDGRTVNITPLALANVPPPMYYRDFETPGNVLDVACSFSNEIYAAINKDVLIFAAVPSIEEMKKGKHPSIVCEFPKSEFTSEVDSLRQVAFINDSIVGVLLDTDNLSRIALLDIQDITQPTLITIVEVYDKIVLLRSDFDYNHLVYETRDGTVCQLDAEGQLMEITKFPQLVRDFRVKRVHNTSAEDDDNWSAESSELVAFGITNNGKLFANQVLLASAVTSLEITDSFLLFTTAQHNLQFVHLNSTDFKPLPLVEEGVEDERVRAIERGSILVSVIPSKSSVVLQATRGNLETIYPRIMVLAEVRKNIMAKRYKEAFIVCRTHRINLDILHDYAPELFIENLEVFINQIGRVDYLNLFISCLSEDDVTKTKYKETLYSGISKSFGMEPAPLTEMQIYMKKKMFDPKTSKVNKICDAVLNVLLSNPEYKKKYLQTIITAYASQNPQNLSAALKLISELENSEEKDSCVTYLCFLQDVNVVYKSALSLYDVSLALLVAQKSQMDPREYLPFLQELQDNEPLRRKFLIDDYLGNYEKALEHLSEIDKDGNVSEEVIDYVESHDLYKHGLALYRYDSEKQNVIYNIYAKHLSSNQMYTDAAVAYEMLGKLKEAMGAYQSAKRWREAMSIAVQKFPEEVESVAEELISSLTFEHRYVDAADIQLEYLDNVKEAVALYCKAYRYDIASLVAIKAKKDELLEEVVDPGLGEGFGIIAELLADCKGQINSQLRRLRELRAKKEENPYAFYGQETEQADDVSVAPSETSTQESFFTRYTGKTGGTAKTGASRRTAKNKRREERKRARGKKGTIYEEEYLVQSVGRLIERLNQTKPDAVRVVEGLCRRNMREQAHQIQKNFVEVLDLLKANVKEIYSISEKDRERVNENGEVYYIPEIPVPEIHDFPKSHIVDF

[3] = target: the molecule itself; assay: negative-stain EM reconstruction with integrative modelling (EM map and cross-links); Elp123 sub-complex from Elp1-TAP purification, 0.01% glutaraldehyde, gel filtration; 1% uranyl acetate; C2 symmetry, 27 Å

B1: hetero-hexameric Elp456 ring within the endogenous holoElongator (Elp6-TAP purification) (complex)
chain 1: MSFRKRGEILNDRGSGLRGPLLRGPPRTSSTPLRTGNRRAPGNVPLSDTTARLKKLNIADESKTKMGLDSSHVGVRPSPATSQPTTSTGSADLDSILGHMGLPLGNSVLVEEQSTTEFHSILGKLFAAQGIVHNRISDSSADKTRNGDTHVIVLSLNQMFAKELPGIYKGSRKQMKKNLISEEESKVTVQNLNETQRSTPSRYKDLKIAWKYKLADEKRLGSPDRDDIQQNSEYKDYNHQFDITTRLMPAPIASELTFIAPTQPVSTILSQIEQTIKRNDKKLIRIVIPSLLHPAMYPPKMFESSEIIGLMHGVRSLVKKYYERVVLFASISIDIITPPLLVLLRNMFDSVINLEPFNQEMTEFLERVYKSQPGKIQHGLVHILKLPVFTDRGEMRVLKSEWAFKNGRKKFEIEQWGIPVDDAEGSAASEQSHSHSHSDEISHNIPAKKTKISLDY
chain 2: MASSSHNPVILLKRILSLTESSPFILCLDSIAQTSYKLIQEFVHQSKSKGNEYPIVYISFETVNKPSYCTQFIDATQMDFVHLVKQIISYLPAATATQAKKHMVIIDSLNYISTEYITRFLSEIASPHCTMVATYHKDIKDENRTVIPDWNNNYPDKLTLLQFMATTIVDIDVVLTGTLDTEEVSELLNEFRIPRGLNNDIFQLRLVNKRKSGRSLEYDFIVNSNTHEYELLSTTKQEEESSSNGLETPEMLQGLTTFNLGTSNKQKLAKDQVALPFLEAQSFGQGGAIVYEYEKDDDYDEEDPYEDPF
chain 3: MGSVQRQDLVLFSDQSVLPAHFFQDSNSHNLFFITHQSCTQPLWMINALVETHVLGSPSSLNESSSSMLPSSTRSHAVLASFIHEQNYFTNSLNKLKIPSNNYNVLDFLSDFIVNNIHNKPRDKILSDVLAKFSAAIQNNPTDTIVIIEQPELLLSLVSGLTCSELNNKFITPLLRQCKVLIIVSNSDIFNIDEYDASVHSSNLQNFYKSSFIKSMINLNLNPLKTGFAKDVTGSLHVCRGGAPIATSNTSLHVVENEYLYLNEKESTKLFYR
notes: Elp4, S. cerevisiae, endogenous protein; Elp5, S. cerevisiae, endogenous protein; Elp6, S. cerevisiae, endogenous protein with TAP tag; Only part of the TAP tag is left after TEV elution; copies: 2 + 2 + 2
stoichiometry N [1]: 1

B2: GST-tagged Elp3 KAT domain (aa348–557) (domain or fragment, S. cerevisiae, UniProt Q02908 348-557, looked up)
chain: SYSANALVDLVARILALVPPWTRIYRVQRDIPMPLVTSGVDNGNLRELALARMKDLGTTCRDVRTREVGIQEVHHKVQPDQVELIRRDYYANGGWETFLSYEDPKKDILIGLLRLRKASKKYTYRKEFTSQRTSIVRELHVYGSVVPLHSRDPRKFQHQGFGTLLMEEAERIAKEEHGSEKISVISGVGVRNYYGKLGYELDGPYMSKRI
notes: Elp3, S. cerevisiae, lysine acetyl transferase (KAT) domain, residues 348–557; also called KAT domain of Elp3; source: E. coli BL21 pSarRare, purified (NiNTA, gel filtration); not shown: His6, N-terminal, kept; GST, N-terminal, kept
binding result [2]: binds

B3: endogenously TAP-tagged Elp1 (natural protein, UniProt Q06706 1-1349, looked up)
chain: T2 sequence (looked up)
notes: Elp1, S. cerevisiae, endogenous protein with TAP tag (Elp1-TAP::TRP1); also called Elp1-TAP
stoichiometry N [3]: 2
